Drawing on paper PMC5551578 (The Journal of Experimental Medicine, 2017), this text covers Kd and koff for six molecules.

B1: TT-Ab7 (antibody, V domains shown)
VH: EVQLVESGGGWVQPGGSLRLSCAASGFTFNSFGSYGMSWVRQAPGKGLEWVSHISASGAATYYADSVKGRFTISRDNSKNTLLLQMNDLRGEDTATYYCARSVQQYLGLLGYWGQGTLVTVSS
VL: QSVLTQSPSASASLGATVKLTCTLSSGHTNYAIAWHQLQPQKAPRYLLKISNDGSHKRGDGIPDRFSGSSSGAERYLTISSLQSEDEAEYYCQTWGAGMGMFGGGTKLTVL
notes: IgG1
B2: TT-Ab4 (antibody, V domains shown)
VH: EVQLVQSGAEMKKPGSSVKVSCRMSGGKFNNYAMSWVRQAPGQGLEWVGGIIPVLGTANYAQKFQDRVAITADKSTNTAYMELSSLRSDDTAVYYCARVWGTVVTQGPSQVQYNHYGMDVWGQGTTVTVSS
VL: DIQLTQSPSSLSASVGDRVTITCRATQSISSSLNWYQHKPGKAPNLLISAASNLQSGVPSRFSGSGSRTDFTLTITNLQPEDFATYYCQQSYTTPLTFGGGTKVEIK
notes: IgG1
B3: TT-Ab9 (antibody, V domains shown)
VH: EVQLVESGGSLVQPGGSLRLSCVGTGFTFNTYWMSWVRQAPGKGLEWVANIKQDGREKHYVDSVMGRFTVSRDNAMNALYLQVNSLRVEDTAVYYCARGMTAWSLGGYQYDYWGQGTQVTVSS
VL: DIQMTQSPSSLSASVGDTVTITCRASQGIRSDLGWYQQRPGKAPKLLVYTASTLQTGVPSRFSGSGFGTDFTLTISSLQPEDFATYYCLQNYNYPRTFGQGTKVEIK
notes: IgG1
B4: TT-Ab3 (antibody, V domains shown)
VH: EVQLVQSGAEVKKPGSSVKVSCKVSGGAFNSYAISWVRQAPGQGLEWMGGIIPILRTANYTEKFQGRVTINADKSTNTAYMELSKLRSEDTAVYYCARVWGTTVTKGPSQIKYYYYGMDVWGQGTTVTVSS
VL: DIQMTQSPSSLSASVGDRVTISCRASQSISNYLNWYHQKPGKAPKLLIYAASSLQSGVPSRFSGSGSGTDFTLTISSLQPEDFATYYCQQSYSTPLTFGGGTKVEIK
notes: IgG1
B5: TT-Ab10 (antibody, V domains shown)
VH: EVQLVESGGGLVQPGGSLRVSCGASGFTFANFWMSWVRQAPGKGLEWVANINQDGNERKYVDSVKGRFTISRDNDKNSLYLQMNSLRAEDTAVYFCAREYGSYWRTYYFDDWGQGTLVTVSS
VL: DIVMTQSPATLSLSPGERATLSCRASQSVSNYLAWYQQKPGQAPRLLIYDASNRASGTPARFSGSGFGTDFTLTISSLDPEDFAVYYCQQGSNWLTFGGGTKVEIK
notes: IgG1
B6: TT-Ab12 (antibody, V domains shown)
VH: QVQLQESGPGLVKPSETLSLTCNVSGASISRYYWAWIRQPPGKGLEWIGYIYDSGTTTYNTSLKSRVTISRDTSKNQFSLNMMSVTAADTAVYYCARARYYYDSTGYFYGWLDPWGQGRLVTVSF
VL: DIQMTQSPSTLSASVGDRVTITCRASQSINIWLAWYQQRPGKAPDLLIYKASTLQSGVPSRFSGSGSGTEFTLTISSVQPDDFATYYCQQYKSYSCSFGQGTKVEIN
notes: IgG1

T1 sequence (P04958 whole entry): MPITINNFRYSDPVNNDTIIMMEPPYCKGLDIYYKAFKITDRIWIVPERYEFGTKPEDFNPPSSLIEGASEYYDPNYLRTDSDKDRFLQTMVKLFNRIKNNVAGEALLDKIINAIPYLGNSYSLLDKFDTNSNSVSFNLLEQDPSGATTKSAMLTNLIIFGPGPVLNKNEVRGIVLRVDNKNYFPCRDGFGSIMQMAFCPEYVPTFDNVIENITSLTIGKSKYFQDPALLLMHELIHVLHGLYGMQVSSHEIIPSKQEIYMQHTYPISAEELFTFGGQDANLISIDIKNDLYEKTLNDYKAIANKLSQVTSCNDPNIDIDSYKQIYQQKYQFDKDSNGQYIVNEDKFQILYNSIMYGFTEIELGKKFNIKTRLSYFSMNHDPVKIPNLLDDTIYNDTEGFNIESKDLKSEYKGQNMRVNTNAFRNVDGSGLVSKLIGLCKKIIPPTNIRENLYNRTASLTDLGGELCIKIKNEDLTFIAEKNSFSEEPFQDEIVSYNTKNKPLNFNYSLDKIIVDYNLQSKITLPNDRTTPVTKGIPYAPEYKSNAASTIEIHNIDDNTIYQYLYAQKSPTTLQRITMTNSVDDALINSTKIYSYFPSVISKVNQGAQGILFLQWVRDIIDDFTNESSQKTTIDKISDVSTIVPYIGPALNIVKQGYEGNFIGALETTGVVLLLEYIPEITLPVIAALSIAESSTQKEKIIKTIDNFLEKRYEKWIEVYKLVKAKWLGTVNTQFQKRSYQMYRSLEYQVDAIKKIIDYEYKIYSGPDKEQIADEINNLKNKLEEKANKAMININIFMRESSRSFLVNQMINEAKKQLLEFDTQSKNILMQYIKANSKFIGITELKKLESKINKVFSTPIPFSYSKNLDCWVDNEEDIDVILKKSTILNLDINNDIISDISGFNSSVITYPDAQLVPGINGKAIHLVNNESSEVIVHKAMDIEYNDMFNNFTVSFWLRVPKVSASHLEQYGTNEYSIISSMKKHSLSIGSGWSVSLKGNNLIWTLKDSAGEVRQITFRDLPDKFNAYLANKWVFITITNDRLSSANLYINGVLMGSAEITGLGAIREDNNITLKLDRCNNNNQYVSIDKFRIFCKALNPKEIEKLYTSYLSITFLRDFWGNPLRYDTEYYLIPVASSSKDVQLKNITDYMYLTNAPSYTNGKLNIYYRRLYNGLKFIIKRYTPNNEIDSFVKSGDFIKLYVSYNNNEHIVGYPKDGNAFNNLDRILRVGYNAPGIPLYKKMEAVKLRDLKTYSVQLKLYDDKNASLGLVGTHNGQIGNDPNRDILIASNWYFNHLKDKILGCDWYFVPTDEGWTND

This assay addresses T1, tetanus toxoid (Clostridium tetani, production strain …, UniProt P04958, biotin (biotinylated antigen)).
T1 construct: also called TT
Briefly: BLI.
B1 displayed a Kd of 0.0185 nM and a koff of 3.46e-06 s⁻¹.

Take B2: the Kd was 0.0137 nM and the off-rate constant (koff) is 2.27e-06 s⁻¹.

For B3, the Kd is 6.64 nM and the koff was 0.000919 s⁻¹.

B4 showed a Kd of 1.61 nM and a koff of 0.00013 s⁻¹.

Regarding B5, the dissociation constant Kd was determined as 1.59 nM and the off-rate (koff) came to 0.000243 s⁻¹.

Turning to B6, the dissociation constant Kd worked out at 1.95 nM and the koff stood at 0.000307 s⁻¹.

In general, Kd refers to the concentration at which binding is half-saturated. The low end stands for higher affinity, the high end for lower affinity. Broadly, the koff is the rate constant with which the complex falls apart. The low end stands for a long-lived complex, the high end for a short-lived complex.
